Results published in patent publication US20240052027A1 (OBLIQUE THERAPEUTICS, published 2024).
Positions count from the first letter of the chain named. Bridge positions count the residues as written; N and C are the ends. * marks the point of attachment. Propargyl = C#CC*

T1: NHP-OTV16 peptide (SEQ ID NO:5) (Macaca mulatta, disulfide 1-18)
T1 construct: cyclic
T1 peptide: Propargyl-CYRPVDGLPPFKMEKTEC-NH2

T2: rOTV16 peptide (SEQ ID NO:7) (rat, disulfide 1-18)
T2 construct: cyclic
T2 peptide: Propargyl-CYRPVEGLPPYKLKNTGC-NH2

T3: OTV16 peptide (SEQ ID NO:3) (human, disulfide 1-18; SMILES …)
T3 construct: cyclic; Coated on ELISA plates
T3 peptide: Propargyl-CYRPVDGLPPFKMEKTGC-NH2

T4: mOTV16 peptide (SEQ ID NO:9) (mouse, disulfide 1-19)
T4 construct: cyclic
T4 peptide: Propargyl-CYRPVEGLPPYKLNNTVGC-NH2

B1: 33B6-1 (antibody, V domains shown)
VH: QSLEESGGRLVTPGTPLTLTCTASGLSLSSYDMNWVRQAPGKGLEYIGFINTRGSAYYASWATGRFTISRTSTTVDLTMTSPTTEDTATYFCARDIPDWDIGHVFDLWGPGTLVTVSS
VL: AYDMTQTPASVEVTMGGAVTIKCQASQSISNELSWYQQKPGQRPRLLIYQASALASGVPSRFKGSGYGTQFTLTISDLECADAATYYCQQGYTSNNIVNAFGGGTEVVVK
notes: Recombinant rabbit IgG with rabbit kappa light chain, made in HEK cells; Also tested as B-cell clone supernatant; also called monoclonal antibody 33B6-1
B2: 27A2-1 (antibody, V domains shown)
VH: B1 VH with S6A, T15G, P16S, Y46F, S55T, T63K, D100N
VL: B1 VL with K22N, S30T, S34A
notes: Recombinant rabbit IgG with rabbit kappa light chain, made in HEK cells; Also tested as B-cell clone supernatant; also called monoclonal antibody 27A2-1
B3: 69H7-1 (antibody, V domains shown)
VH: B1 VH with S30R, A56T, S60T, A62T
VL: B1 VL with E12S, V13G, T14A, M15V, A18T, K22N, A53T
notes: Recombinant rabbit IgG with rabbit kappa light chain, made in HEK cells; Also tested as B-cell clone supernatant; also called monoclonal antibody 69H7-1
B4: 75C9-1 (antibody, V domains shown)
VH: QEQVVESGGGLVQPEGSLTLTCTASGFSFNNNAMCWVRQAPGKGLEWIGCIGTAASGNSYYASWAKGRFTISRTSSTTVTLQMTSLTAADTATYFCPRDINAYGNDGWSFKLWGPGTLVTVSS
VL: AFELTQTPSSVEAAVGGTVTIKCQASQSINGWLSWYQQKPGQPPKLLIYRASPVASGVPSRFKGSGSGTEYTLTISGVQCDDAATYYCQQGYTFNNVDDPFGGGTEVVVK
notes: Recombinant rabbit IgG with rabbit kappa light chain, made in HEK cells; Also tested as B-cell clone supernatant; also called monoclonal antibody 75C9-1
B5: 9E4-1 (antibody, V domains shown)
VH: QSLEESGGRLVTPGTPLTLTCTVSGIDLSSVTMGWVRQAPGKGLEYIGVIVPRGATYYANWVKGRFTISKTSTTVDLKMTSLTTEDTATYFCARDGDTGNIYGYYFDIWGPGTLVTVSL
VL: AYDMTQTPASVSEPVGGTVTIKCQASQSISTALAWYQQKSGQRPKLLIYDAWKLASGVSSRFKGSGSGTQFTLTISGVQCDDAATYYCQQGYSGNNVDNVFGGGTEVVVS
notes: Recombinant rabbit IgG with rabbit kappa light chain, made in HEK cells; Also tested as B-cell clone supernatant; also called monoclonal antibody 9E4-1
B6: 23B9-1 (antibody, V domains shown)
VH: QSVEESGGRPVTPGTPLTLTCTVSGIDLSRYAVDWVRQAPGKGLEWIGIILTSGKISYASWVKGRFTISKTSTTVDLKMTSLTTEDTATYFCARHFDLWGQGTLVTVSS
VL: QVLTQTASPVSAAVGGTVTINCQSSQSVYNNNNLAWYQQKPGQPPKLLIYDSSKLESGVPSRFKGSGSGTQFTLIISDLECDDAATYYCAGGYSGVIASFGGGTEVVVK
notes: Recombinant rabbit IgG with rabbit kappa light chain, made in HEK cells; Also tested as B-cell clone supernatant; also called monoclonal antibody 23B9-1
B7: 24C6-1 (antibody, V domains shown)
VH: QSVEESGGRLVTPGTPLTLTCTVSGFSLSTYAMAWVRQAPGKGLEWIGIIGQSSKTYYAIWAKGRFTISRTSTTVDLKIPSPTTEDTATYFCARGSTYVLDMWGPGTLVTVSL
VL: AVVMTQTASPVSAAVGGTVTIKCQASQSISSYLAWYQQKPGQPPKLLIADASKLVSGVPSRFKGSGSGTEFTLTISDLECADAATYYCQNYYGSSDFGTFGGGTEVVVE
notes: Recombinant rabbit IgG with rabbit kappa light chain, made in HEK cells; Also tested as B-cell clone supernatant; also called monoclonal antibody 24C6-1
B8: 29B5-1 (antibody, V domains shown)
VH: B5 VH with V51T, P52T, R53I, G54R, A55T, N60S, K63N, K70Q, G99T, I101T
VL: AVVMTQTPASVEVAVGGTVTIKCQASQSISSYLAWYQQKPGQPPKLLIYKASTLASGVPSRFKGSGSGTQFTLTISGVQCDDAATYYCQQGYTGNNVDNIFGGGTEVVVK
notes: Recombinant rabbit IgG with rabbit kappa light chain, made in HEK cells; Also tested as B-cell clone supernatant; also called monoclonal antibody 29B5-1
B9: 2B11-1 (antibody, V domains shown)
VH: QSVGESGGRLVTPGTPLTLTCTVSGIDLSIYPVDWVRQAPGKGLEWIGIINTNGNTYYANWAKGRFTISKTSSTTVDLQVTSLTTEDTATYFCARHFDLWGQGTLVTVSS
VL: B6 VL with S27T, P41S, K64S, I75T, S94G, V96W, S99A
notes: Recombinant rabbit IgG with rabbit kappa light chain, made in HEK cells; Also tested as B-cell clone supernatant; also called monoclonal antibody 2B11-1
B10: 54F1-1 (antibody, V domains shown)
VH: B9 VH with I30V, N51S, Q79K, V80M
VL: B6 VL with S27T, P41S, S53F, K64S, I75T, S94A, V96W, S99A
notes: Recombinant rabbit IgG with rabbit kappa light chain, made in HEK cells; Also tested as B-cell clone supernatant; also called monoclonal antibody 54F1-1
B11: 4D11-1 (antibody, V domains shown)
VH: QEQVVESGGGLVQPEGSLTLTCTASGFDFSSNAMCWVRQAPGKGLAWIGCIGTGSSGSTYYASWARGRFTISKTSSTTVTLQMTSLTAADTATYFCPRDINAYGNDGWSFNLWGPGTLVTVSS
VL: AYDMTQTPASVEVAVGGTVTIKCQASQSIVGWLSWYQQKPGQPPKLLIYRASTLASGVPSRFKGSGSGTEFTLTISDLECDDAATYYCQQGYTFNNVDNPFGGGTEVLVK
notes: Recombinant rabbit IgG with rabbit kappa light chain, made in HEK cells; Also tested as B-cell clone supernatant; also called monoclonal antibody 4D11-1

Target: T1, NHP-OTV16 peptide (SEQ ID NO:5)
Test: peptide ELISA of B-cell clone supernatant
Description: (§1) FIG. 5: Peptide ELISA of B-cell clone supernatants. Antibody in supernatant from B-cell clones was tested for binding to OTV16 peptide, NHP-OTV16 peptide and rOTV16 peptide respectively. B-cell supernatants were incubated for 1 hr in 96-well plates coated with the respective peptide. Plates were washed and bound antibody was detected using anti-rabbit IgG conjugated to horse radish peroxidase with absorbance measured at 450 nm. Serum from immunized rabbit was used as a positive binding control. B-cell culture medium (antibody-free) was used as a negative control. N=1.
(§2) 96-well plates suitable for ELISA were coated with respective peptide (1 μg/mL) in PBS and incubated 1 h at 37° C. or overnight at 4° C. The peptides used to coat the plates were OTV16 (SEQ ID NO:3), NHP-OTV16 (SEQ ID NO:5), and rOTV16 (SEQ ID NO:7) (described below). Plates were washed with wash buffer and incubated 1 h at 37° C. in the presence of blocking buffer (PBS, 0.5% BSA, 0.05% Tween 20, pH 7.4). B-cell supernatants were added and incubated for 1 h at 37° C. Plates were washed with wash buffer and Mouse Anti-Rabbit IgG Fc Antibody conjugated to horseradish peroxidase (Genscript, cat #A01856) was added and incubated for 30 minutes, 37° C. Plates were washed with wash buffer followed by addition of substrate solution, 100 μl/well and incubated for 13-20 minutes at RT. Reaction was stopped by adding 100 μl/well of stop solution. Absorbance was measured at 450 nm. Serum from immunized rabbit known to contain antibody that binds to OTV16 peptide was used as a positive control. B-cell culture medium (antibody-free) was used as a negative control.

Question: Does B1 bind?
Answer: binds

Question: Does B2 bind?
Answer: binds

Question: Does B3 bind?
Answer: binds

Question: Does B4 bind?
Answer: binds

Question: Does B5 bind?
Answer: binds

Question: Does B6 bind?
Answer: binds

Question: Does B7 bind?
Answer: binds

Question: Does B8 bind?
Answer: binds

Question: Does B9 bind?
Answer: binds

Question: Does B10 bind?
Answer: binds

Question: Does B11 bind?
Answer: binds

Target: T2, rOTV16 peptide (SEQ ID NO:7)
Test: peptide ELISA of B-cell clone supernatant
Description: as §1, §2

Question: Does B9 bind?
Answer: binds

Question: Does B10 bind?
Answer: binds

Target: T3, OTV16 peptide (SEQ ID NO:3)
Test: peptide ELISA of B-cell clone supernatant
Description: as §1, §2

Question: Does B3 bind?
Answer: binds

Question: Does B4 bind?
Answer: binds

Question: Does B5 bind?
Answer: binds

Question: Does B6 bind?
Answer: binds

Target: T3, OTV16 peptide (SEQ ID NO:3)
Test: peptide ELISA of purified recombinant monoclonal antibody
Description: (§3) FIG. 6: Peptide ELISA of purified recombinant monoclonal antibodies. Monoclonal antibodies were tested for binding to OTV16 peptide, NHP-OTV16 peptide, mOTV16 peptide and rOTV16 peptide. Non-specific binding was determined using wells coated with bovine serum albumin (BSA). Serum from immunized rabbit (known to contain OTV16-binding antibody) was used as a positive binding control. Serial dilutions of antibody were incubated for 1 hr in ELISA plates coated with peptide or BSA. Plates were washed, and bound antibody was detected using anti-rabbit IgG conjugated to […] with absorbance measured at 405 nm.
(§4) 96-well plates suitable for ELISA were coated with peptide (1 μg/mL) in PBS and incubated 1 h at 37° C. The peptides used to coat the plates were OTV16 (SEQ ID NO:3; described above), NHP-OTV16 (SEQ ID NO:5; described above), rOTV16 (SEQ ID NO:7; described above) and mOTV16 (SEQ ID NO:9; described below). Plates were washed with PBS containing 0.05% Tween and incubated 1 h at 37° C. in the presence of blocking buffer (PBS, 0.5% BSA, 0.05% Tween 20, pH 7.4). A serial dilution of recombinant antibodies of the invention (23B9-1 or 24C6-1 or 27A2-1 or 29B5-1 or 2B₁₁-1 or 33B6-1 or 4D11-1 or 54F1-1 or 69H7-1 or 75C9-1 or 9E4-1) was added in blocking buffer and incubated for 1 h at RT. Plates were washed with PBS containing 0.05% Tween and a secondary antibody (anti-rabbit IgG conjugated to Alkaline Phosphatase (DAKO)), was added and incubated for 1 h at RT. Plates were washed with PBS containing 0.05% Tween followed by addition of 1 mg/mL pNPP (p-nitrophenyl […] phosphate) in pNPP buffer. Absorbance was measured at 405 nm. Serum from rabbit immunized with OTV16 peptide was used as a positive control. Non-specific binding, e.g. to plastic, was determined using wells coated with bovine serum albumin (BSA) protein.

Question: Does B1 bind?
Answer: binds

Question: Does B2 bind?
Answer: binds

Question: Does B7 bind?
Answer: binds

Question: Does B8 bind?
Answer: binds

Question: Does B9 bind?
Answer: binds

Question: Does B10 bind?
Answer: binds

Question: Does B11 bind?
Answer: binds

Target: T4, mOTV16 peptide (SEQ ID NO:9)
Test: as above
Description: as §3, §4

Question: Does B5 bind?
Answer: binds

Question: Does B6 bind?
Answer: binds

Question: Does B9 bind?
Answer: binds

Question: Does B10 bind?
Answer: binds
